Consider 1 protein from publication PMC4157730 (Journal of molecular biology, 2012).

The series “AUC” concerns the molecule itself. In words: AUC.
Series [1] deals with the molecule itself. In words: negative staining transmission electron microscopy.

B1: human apolipoprotein (apo) C-II (natural protein, UniProt P02655 23-101, looked up)
chain: TQQPQQDEMPSPTFLTQVKESLSSYWESAKTAAQNLYEKTYLPAVDEKLRDLYSKSTAAMSTYTGIFTDQVLSVLKGEE
As to B1, the Ka in “AUC” stood at 3.27e+11 M⁻¹. Besides, in series [1], the stoichiometry N – broadly, the number of molecules, sites or subunits per partner or assembly – is roughly 621 subunits.
